Reference: patent US20070036810A1, “Cyclic amp response element activator proteins and uses related thereto” (priority 2003, published 2007)
“Also recorded” adds a separate entry of the source.

B1: K3: CREAP1 fragment, amino acids 1-494, SEQ ID NO 34, Flag fusion (protein)
chain: MATSNNPRKFSEKIALHNQKQAEETAAFEEVMKDLSLTRAARLQLQKSQYLQLGPSRGQYYGGSLPNVNQIGSGTMDLPFQPSGFLGEALAAAPVSLTPFQSSGLDTSRTTRHHGLVDRVYRERGRLGSPHRRPLSVDKHGRQADSCPYGTMYLSPPADTSWRRTNSDSALHQSTMTPTQPESFSSGSQDVHQKRVLLLTVPGMEETTSEADKNLSKQAWDTKKTGSRPKSCEVPGINIFPSADQENTTALIPATHNTGGSLPDLTNIHFPSPLPTPLDPEEPTFPALSSSSSTGNLAANLTHLGIGGAGQGMSTPGSSPQHRPAGVSPLSLSTEARRQQASPTLSPLSPITQAVAMDALSLEQQLPYAFFTQAGSQQPPPQPQPPPPPPPASQQPPPPPPPQAPVRLPPGGPLLPSASLTRGPQPPPLAVTVPSSLPQSPPENPGQPSMGIDIASAPALQQYRTSAGSPANQSPTSPVSNQGFSPGSSPQHTS
modifications: Flag tag; human
B2: K5: CREAP1 fragment, amino acids 170-650, SEQ ID NO 36, Flag fusion (protein)
chain: ALHQSTMTPTQPESFSSGSQDVHQKRVLLLTVPGMEETTSEADKNLSKQAWDTKKTGSRPKSCEVPGINIFPSADQENTTALIPATHNTGGSLPDLTNIHFPSPLPTPLDPEEPTFPALSSSSSTGNLAANLTHLGIGGAGQGMSTPGSSPQHRPAGVSPLSLSTEARRQQASPTLSPLSPITQAVAMDALSLEQQLPYAFFTQAGSQQPPPQPQPPPPPPPASQQPPPPPPPQAPVRLPPGGPLLPSASLTRGPQPPPLAVTVPSSLPQSPPENPGQPSMGIDIASAPALQQYRTSAGSPANQSPTSPVSNQGFSPGSSPQHTSTLGSVFGDAYYEQQMAARQANALSHQLEQFNMMENAISSSSLYSPGSTLNYSQAAMMGLTGSHGSLPDSQQLGYASHSGIPNIILTVTGESPPSLSKELTSSLAGVGDVSFDSDSQFPLDELKIDPLTLDGLHMLNDPDMVLADPATEDTFRMDRL
modifications: Flag tag; human
B3: K4: CREAP1 fragment, amino acids 1-580, SEQ ID NO 35, Flag fusion (protein)
chain: MATSNNPRKFSEKIALHNQKQAEETAAFEEVMKDLSLTRAARLQLQKSQYLQLGPSRGQYYGGSLPNVNQIGSGTMDLPFQPSGFLGEALAAAPVSLTPFQSSGLDTSRTTRHHGLVDRVYRERGRLGSPHRRPLSVDKHGRQADSCPYGTMYLSPPADTSWRRTNSDSALHQSTMTPTQPESFSSGSQDVHQKRVLLLTVPGMEETTSEADKNLSKQAWDTKKTGSRPKSCEVPGINIFPSADQENTTALIPATHNTGGSLPDLTNIHFPSPLPTPLDPEEPTFPALSSSSSTGNLAANLTHLGIGGAGQGMSTPGSSPQHRPAGVSPLSLSTEARRQQASPTLSPLSPITQAVAMDALSLEQQLPYAFFTQAGSQQPPPQPQPPPPPPPASQQPPPPPPPQAPVRLPPGGPLLPSASLTRGPQPPPLAVTVPSSLPQSPPENPGQPSMGIDIASAPALQQYRTSAGSPANQSPTSPVSNQGFSPGSSPQHTSTLGSVFGDAYYEQQMAARQANALSHQLEQFNMMENAISSSSLYSPGSTLNYSQAAMMGLTGSHGSLPDSQQLGYASHSGIPNIILT
modifications: Flag tag; human
B4: K2: CREAP1 fragment, amino acids 1-356, SEQ ID NO 33, Flag fusion (protein)
chain: MATSNNPRKFSEKIALHNQKQAEETAAFEEVMKDLSLTRAARLQLQKSQYLQLGPSRGQYYGGSLPNVNQIGSGTMDLPFQPSGFLGEALAAAPVSLTPFQSSGLDTSRTTRHHGLVDRVYRERGRLGSPHRRPLSVDKHGRQADSCPYGTMYLSPPADTSWRRTNSDSALHQSTMTPTQPESFSSGSQDVHQKRVLLLTVPGMEETTSEADKNLSKQAWDTKKTGSRPKSCEVPGINIFPSADQENTTALIPATHNTGGSLPDLTNIHFPSPLPTPLDPEEPTFPALSSSSSTGNLAANLTHLGIGGAGQGMSTPGSSPQHRPAGVSPLSLSTEARRQQASPTLSPLSPITQAVA
modifications: Flag tag; human

Test system: pCRE-Luc reporter (cyclic AMP response element)
Assay: pCRE-Luc reporter assay of CREAP1 deletion fragments in Hela cells
Type: cell-based
Conditions: for Activity: Flag-CREAP1 deletion constructs co-transfected with pCRE-Luc in Hela cells, Dual-Glo Luciferase 40 hrs after transfection
Description: CREAP1 protein amino acids 1-170, 1-356, […], 1-580 and 170-650 are inserted into pFlag-CMV4 expression vector (Sigma, St. Louis, Mo.) by utilizing PCR strategy familiar to one of skill in the art. 10^4 Hela cells are split into each well of 96 well tissue culture plates. Cells are transfected 16 hours later with 100 ng of pCRE-Luc reporter construct, 30 ng of Renilla luciferase control plasmid together with 100 ng of pCMVSPORT6, pCMVSPORT-CREAP1 and different Flag-CREAP1 deletion fusion constructs respectively. Transfection is done with Fugene6 reagent (Roche Applied Biosciences) following the manufacturer's instructions. A Dual-Glo Luciferase assay (Promega) is conducted 40 hrs after transfection. Firefly luciferase counts are normalized to Renilla luciferase and plotted.
To dissect the functional domains within the CREAP1 molecule, CREAP1 protein fragments of amino acids 1-170, 1-356, 1-494, 1-580 and 170-650 were subcloned into pFlag-CMV4 vector by utilizing PCR based strategy and tested for function in a Dual Glo Luciferase assay as described above.

Molecule | Activity | Activity (listed as KS) | reduction of functional activity of CREAP1 (K2 compared with K4 (removal of amino acids 356-580))
B1 | Partially Active | – | –
B2 | lacked almost all stimulating activity | Inactive | –
B3 | retains almost all wild type activity; also recorded: Fully active | – | –
B4 | Inactive | – | 10 fold
